Consider 41 sequences from the nanobody polyreactivity screen of Harvey et al. (2022).

This data set is described as follows: yeast display, Sf9 membrane polyspecificity reagent, FACS + sequencing; frameworks hold sequencing errors. In short, it runs like this:
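A nanobody's polyreactivity label depends on the gate it was sorted from. Yeast display cells were stained with 10% biotinylated, detergent-solubilized Sf9 membrane reagent for 1 hour at 4 °C, enriched on streptavidin microbeads and sorted by FACS. The low and high (top ~1%) gates were set on anti-HA fluorescence for expression and streptavidin fluorescence for reagent binding.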
With “QVQLQESGGGLVLAGGSLRLSCAESGYISWSFTMGWYRTAPGKERELVAGITYGGITYYADSVKGRFTISRDNAKNTVYLQMNSLKPEDTAVYYCNARKHGQGRNGYGSWGQGTQVTVSS”, the “polyreactivity (PSR sort gate)” value is “high polyreactivity”.

For “QVQLVESGGGLVQAGGSLRLSCAAYGHFFAIYAMGWYSQAPGKEREFVAAITFTTRTYYADSVKGRFTISRDNAKNTVYLQMNSLKPEDTAVYYCAAGGYGEEYDYWGQGTQVTVSS”, the “polyreactivity (PSR sort gate)” value is listed as “low polyreactivity”.

Take “QVQLVESGGGLVQAGGSLRISCAASGSTFWYYSMGWYRQAPGKERELVAAITRGGNTNYADSVKGRFTISRDNAKNTVYLQMNSLKPEDTAVYYCNADYKLADYREYNVYSFDYWGQGTQVTVSS”: the “polyreactivity (PSR sort gate)” value is recorded as “low polyreactivity”.

For the sequence “QVQLVESGGGLVQAGGSLRLSCAASGRTFYYYAMGWYRQAPGKERELVAAISWSGGRTYYADSVKGRFTISRDNAKNTVYLQMNSLKPEDTAVYYCAASSTGYGGSTYYYWGQGTQVTVSS”, the “polyreactivity (PSR sort gate)” value is on record as “low polyreactivity”.

For “QVQLVESGGGLVQAGGSLRLSCAASGRTFTTNAMGWYRQAPGKERELVAAITIGDDTYYADSVKGRFTISRDNAKNTVYLQMNSLKPEDTEVYYCSADYKRVPFVTQYVSKDGYWGHGTQVTVSS”, the “polyreactivity (PSR sort gate)” value was “low polyreactivity”.

As for “QVQLVESGGGLVQAGGSLRLSCAASGGTFVYNAMGWYRQAPGKERELVAAIRVRGDTTYYADSVKGRFTISRDNAKNTVYLQMNSLKPEDTAVYYCAAYPDYSYYYWGQGTQVTVSS”, the “polyreactivity (PSR sort gate)” value was “high polyreactivity”.

With “QVQLVESGGGLVQAGGSLRLSCAASGLIFVQNAMGWYRQAPGKERELVAAISSRGTNTYYADSVKGRFTISRDNAKNTVYLQMNSLKPEDTAVYYCAKPLKTPRPNYDYWGQGTQVTVSS”, the “polyreactivity (PSR sort gate)” value is on record as “low polyreactivity”.

Take “QVQLVESGGGLVQAGGSLRLSCAASGSIFSFYAMGWYRQAPGKEREFVAAITISDDSTYYADTVKGRFTISRDNAKNTVYLQMNSLNPEDTAVYYCNDRYLSWYFKYLYDYWGQGTQVTVSS”: the “polyreactivity (PSR sort gate)” value is “low polyreactivity”.

For the sequence “QVQLVESGGGLVQAGGSLRLRCAACGSIFTQYVMGWYRKAPGKERELVAAITWSGGNTYYADSVKGRFTISRDNAKNTVYLQMNSLKPEDTAVYYCAAYKPYSKYNDWGQGTQVTVSS”, the “polyreactivity (PSR sort gate)” value is “high polyreactivity”.

As for “QVQLVESGGGLVQAGGSLRLSCAASGFIFNKYAMGWYRPAPGKERELVARITSSGSRTYYADSVKGRFTISRDKAKNTVYLQMISLKPEDTAVYYCNTYYHWLTMDYWGQGTQVTVSS”, the “polyreactivity (PSR sort gate)” value was “high polyreactivity”.

On to “QVQLVESGGGLVQAGGSLRLSCAASGSTLGYYAMGWYRQAPGKERELVAAIRYSDGNTYYADSVKGRFTISRDNAKNTVYLQMNSLKPEDTAVYYCAADGGYYGREYWGQGTQVTVSS”, for which the “polyreactivity (PSR sort gate)” value is listed as “high polyreactivity”.

As for “QVQLVESGGVLVQAGGSLRLRCAASGRIFNRNAMGWYRQAPGKERELVAAITSCGSTNYADSVKGRFTISRDNAKNTVYLQMNSLKPEDTAVYYCNVYYHFFRLKTTYLRYYYWGQGTQVTVSS”, the “polyreactivity (PSR sort gate)” value is “high polyreactivity”.

For the sequence “QVQLVESGGGLVQAGGSLRLSCAASGSIFVYNAMGWYRQAPGKEWELVAAISFSGGDTYYADSVKGRFTISRDNAKNTVYLQMNSLKPEDTAVYYCNVDNSEYEGDYWGQGTQVTVSS”, the “polyreactivity (PSR sort gate)” value is “low polyreactivity”.

Turning to “QVQLVESGGGLVQAGGSLRVSCAASGSTFTDYDMVWYRQAPGKERELVAAITSGGSTNYADSVKGRFTISRDNAKNTVYLHMNSLKPEDTAVYYCNAERDSPTLNLDRGWEYDYWGQGTQVTVSS”, the “polyreactivity (PSR sort gate)” value is recorded as “low polyreactivity”.

As to “QVQLVESGGRLVQAGGILRLSCAASGFIFLSYAMGWYRQAPGKERELVAAITSNGGSTYYADSVKGRFTISRDNAKNTVYLQMNSLKPEDTSVYYCAARFSQGKVRMGYWGQGTQVTVSS”, the “polyreactivity (PSR sort gate)” value is “high polyreactivity”.

With “QVQLVESGGGLVQAGGSLRLSCAASGITFYPNDMGWYRQAPGKERELVAAITTNDGDTYYADSVKGRFTISRDNAKNTVYVQMNSLKPEDTAVYYCATGIDKGPVWVTYSTDYDYWGQGTQVTVSS”, the “polyreactivity (PSR sort gate)” value was “low polyreactivity”.

“QVQLVESGGGLVQAGGSLRLSGAASGFTFGRNAMGGYRQAPGKEREFVAAISKSATSKYYADSVKGRFTISRDNAKNTVYLQMNSLKPEDTSVYYCARTNYAKRWDFDYWGQGTQVTVSS”: the “polyreactivity (PSR sort gate)” value is given as “low polyreactivity”.

On to “QVQLVESGGGLVPAGGSLRLSCAASGRIFYYYAMGWYRQAPGKERELVAAISSSGGSTYYADSVKGRFTISRDNAKKTVYLQMNSLKPEDTAVYYCAKRYALSGYYRLYDYWGQGTQVTVSS”, for which the “polyreactivity (PSR sort gate)” value is listed as “high polyreactivity”.

With “QVQLVESGGGLVQAGGSLRLSCAASGSTFVVNAMGWYRQAPGKERELVAAIRGSAGSTYYADSVKGRFTISRDNAKNTVYLQMNSLKPEDTAVYYCAAYYRRYKSKYDYWGQGTQVTVSS”, the “polyreactivity (PSR sort gate)” value is recorded as “high polyreactivity”.

Take “QVQLVESGGGLVQAGGSLRLSCAASGSTFYYNAMGWYRQAPGKERELVAAITSSGGRTYYADSVKGRFTISRDNAKNTVYLQMNSLKPEDTAVYYCAKREASSRWPYDYWGQGTQVTVSS”: the “polyreactivity (PSR sort gate)” value is on record as “low polyreactivity”.

Take “QVQLVESGGGLVQAGGILRLSCAASGSTFQSNAMGWYRQAPGKERELVAAISSSAGTTFYADSVKGRFTISRDNAKNTVYLQMNSLKPEDTAVYYCAKKDFYFAPSPGYYRSRDYWGQGTQVTVSS”: the “polyreactivity (PSR sort gate)” value was “low polyreactivity”.

“QDQLVESGGGLVQAGGSLRLSCAASGNTLAANAMGWYRQAPGKERELVAAITYSGGSTYYADSVKGRFTISRDNAKNTVYLQMSSLKPEDTSVYYCNAPYVFSAGFDYWGQGTQVTVSS”: the “polyreactivity (PSR sort gate)” value is recorded as “low polyreactivity”.

For “QVQLVESGGGLVQAGGSLRLSCAASGIIFYGYAMGWYRQAPGKERELVAAIRWRGGSTYYADSVKGRFTISRDNAKNTVYLQMNSLKPADTAVYFCAADQTRYTSVFSSTRYDYWGQGTQVTVSS”, the “polyreactivity (PSR sort gate)” value was “low polyreactivity”.

Turning to “QVQLGESGGGLVQAGGSLRLSCAASGSTFAPYAMGWYRQAPGKERELVAAISTGGSTNYADSVKGRFTISRDNAMNTVYFQMNSLKPEDTAVYYCNTGYFVWGFDYWGQGTQVTVSS”, the “polyreactivity (PSR sort gate)” value was “low polyreactivity”.

As to “QVQLVESGGGLVQAGGSLRLSCAASGSIFSRYAMGWYRQAPGTERELVAAITSSGTSTYYADSVKGRFTISRDNAKNTVYLQMNSLKPEDTAVYYCAAAFRQRTSRYDYWGQGTQVTVSS”, the “polyreactivity (PSR sort gate)” value is listed as “high polyreactivity”.

Regarding “QVQLVESGGGLVQAGGSLRLSCAASGRIFGVYALGWYRQAPGKARELVAVINGRGSRTYYADSVKGRFRISRDNAKNTVYLQMNSLKPEDTAVYYCAAGYPASEYDYWGQGTQVTVSS”, the “polyreactivity (PSR sort gate)” value was “high polyreactivity”.

With “QVQLVESGGGLVQAGGSLRLSCAASGSTFQWYAMGWYRQAPGKERELVAAISNGVSTNYADSVKGRFTISRDNAKNTVYLHMNSLKPEDTAVYYCAADAYPYYQSYYPFEYLGQGTQVTVSS”, the “polyreactivity (PSR sort gate)” value was “low polyreactivity”.

For the sequence “QVQLVESGGGLVQAGGSLRLSCAASGLIFPDYDMGWYIQAPGKERELVAAISIGGVSTYYADSVKGRFTISRDNAKNTVYLQMNSLKPEDTAVYYCAAYYSYVYYVGDSDDYWGQGTQVTVSS”, the “polyreactivity (PSR sort gate)” value is “low polyreactivity”.

Take “QVQLVESGGGLVQAGGSLRLSCAASGSTLFFYTMGWYRQAPGKERELVAAITRGGSTYYADSVKGRFTISRDNAKNTVYLQLNSLKPEDTAVYYCAAPYVRPKKVYNYDYWGQGTQVTVSS”: the “polyreactivity (PSR sort gate)” value is “high polyreactivity”.

Take “QVHLVESGGGLVQAGGSLRLSCAPSGSTFIRNAILWYRQAPGKDRELVAPISRSGSSTYYADSVKGRFTISRDNAKNTVYLQMNSLKPEDTAVYYCAAETDSRKARVLYDSWGQGTQVTVSS”: the “polyreactivity (PSR sort gate)” value is listed as “high polyreactivity”.

Regarding “QVQRVESGVGLVQAGGSLRLSCAASGLTFLWYAMGWYRQAPGKERELVAAITSGGRTKYADSVKGRFTISRDNAKNTVYLQMNSLKPEDTAVYYCAAYPQWWGYDYWGQGTQVTVSS”, the “polyreactivity (PSR sort gate)” value is recorded as “high polyreactivity”.

On to “QVQVVESGGGLVQAGGSLRLSCAASGFIFPYYAMGWYRQAPGKEWELVAAISWSGSNTYYADSVKGRFTISRDNAKNTDYLQMNSLKPEATAVYYCAARYSVYYFVQRNGRYDDWGQGTQVTVSS”, for which the “polyreactivity (PSR sort gate)” value is recorded as “high polyreactivity”.

As for “QVQLVESVGGLVQAGGSLRLSCAASVFNLKSNAMGWYRQATGKERELVAAISSSGGSTYYADSVKGRFTISRDNAKNTVYLQMNSLKPEDTAVYYCNVAQYLRARRPVDYWGHGTQVTVSS”, the “polyreactivity (PSR sort gate)” value was “high polyreactivity”.

On to “QVQLVESGGGLVQAGGSLRLSCAASGITFSYNAMGWYRPAPGKERELVAAIRVGDGSTYYADSVKGRFTISRDNAKNTVYLQMNSLNPEDTAVYYCNARYLRLRYPYTDEYNYWGQGTQVTVSS”, for which the “polyreactivity (PSR sort gate)” value is listed as “low polyreactivity”.

As to “QVQLVESGGGLVQAGGSLRLSCAASGSNFNYYTMGWYRQAPGKERELVAAISYRGGRTYYADSVKGRFTISRDTSKNTVYLQMNSLKPEDTAVYYCNAVTRIYEVDYWGQGTQVTVSS”, the “polyreactivity (PSR sort gate)” value was “high polyreactivity”.

Take “QFQLVESGGGLVQAGGSLRLICAASGLTFVYNDMGWYRQAHGKERELVAGITSGGSTYYADSVKGRFTISRDNAKNTVYLQMNSLKPEDTAVYYGAADGLSTDLFRPDSIVDYWGQGTQVTVSS”: the “polyreactivity (PSR sort gate)” value is on record as “low polyreactivity”.

Regarding “QVQLVESGGGLVQAGGSLRLSCAASGLTFQYYAMGWYRQAPGKERELVATISGRAGRTYYADSVKGRFTISRDNAKNTVYLQMNSLKPEDTAVYYCAAEVDYSLYTWYEYYYWGQGTQVTVSS”, the “polyreactivity (PSR sort gate)” value is “high polyreactivity”.

For “QVQLVESGGGLVQAGGSLRLSCAASGRIFTKYAMGWYRQAPGKERELVAGINWRDGRTYYADSVKGRFTLSRDNAKNTVYLQMISLKPVDTAVYYCAGVSIFGRRWMYYWGQGTQVTVSS”, the “polyreactivity (PSR sort gate)” value is listed as “high polyreactivity”.

For “QVELVESGGGVVQAGGSLRLSCAASGYIFRAYAMGWYRQAPGKERELVAAISSRGGSKYYADSVKGRFTSSRDNAKNTVYLQMNSLIPEDTAVYYCAAAYRKPYIGYGYWGQGTQGTVSS”, the “polyreactivity (PSR sort gate)” value is “high polyreactivity”.

“QVQLVESGGGLVQAGGSLRLSCAASGIIFDRYAMGWYRQAPGKERELVAAITYGGGSTYYADSVKGRFTISRDNAKNTVYLQMNSLKTEDTAVYYCAAVPRSGMYYWGQGTQVTVSS”: the “polyreactivity (PSR sort gate)” value is on record as “high polyreactivity”.

Consider “QVQLVESGGGLVQAGGSLRLSCAASGNNFRSYAMGWYRQATGKERELVAAISGRGGSTYYADSVKGRFTISRDNAKNTVYLQMNSLKPEDTAVYYCAAESRRVNYANDYWGQGTQVTVSS”, for which the “polyreactivity (PSR sort gate)” value is listed as “high polyreactivity”.
